{"source": "the RNAGym collection of RNA variant scans (doi:10.7554/elife.80360)", "parents": {"B1": {"name": "HDV Ribozyme (parent)", "chain": "GGCCGGCAUGGUCCCAGCCUCCUCGCUGGCGCCGGCUGGGCAACAUUCCGAGGGGACCGUCCCCUCGGUAAUGGCGAAUGGGACCCA"}}}
{"variants_of": "B1", "assay": "self-cleavage, relative activity (ratio to wild type); higher = more cleavage; co-transcriptional"}
{"variant": "GGCCGGCAUGGUCCCAGCCUCCUCGCUAGCGCCGGCUGGGCAACAUUCCGAGGGGACCGUCCCCUCGGUAAUGGCGUAUGGGACCCA", "note": "[G28A A77U]", "self-cleavage": 0.104}
{"variant": "GGCCCGCAUGGUCCCAGCCUCCUCGCUGGCGACGGCUGGGCAACAUUCCGAGGGGACCGUCCCCUCGGUAAUGGCGAAUGGGACCCA", "note": "[G5C C32A]", "self-cleavage": 0.0615}
{"variant": "GUCCGGCAUGGUCCCAGCCUCCUCGCUGGCGCCGGCUGGGCAACACUCCGAGGGGACCGUCCCCUCGGUAAUGGCGAAUGGGACCCA", "note": "[G2U U46C]", "self-cleavage": 0.0213}
{"variant": "GGCCGGCAUGGUCCCAGCCUCCUCGCUGGCGCCGGCUGGGCAACAUUCCGAGUGGACCGUCCCCGCGGUAAUGGCGAAUGGGACCCA", "note": "[G53U U65G]", "self-cleavage": 0.831}
{"variant": "GGCCGGCAUGGUCCCAGCCUCCUCGCUGGCGCCGGCUGGGCAACAUUCCGAGGGGACCGUCUCGUCGGUAAUGGCGAAUGGGACCCA", "note": "[C62U C64G]", "self-cleavage": 0.482}
{"variant": "GGCCGGCAUGAUCCCAGCCUCCUCGCUCGCGCCGGCUGGGCAACAUUCCGAGGGGACCGUCCCCUCGGUAAUGGCGAAUGGGACCCA", "note": "[G11A G28C]", "self-cleavage": 0.0936}
{"variant": "GGCCGGCAUGGUCCCAGCCUCCUCGCUGGCGCCGGCUGGGCAACAUUCCGAGGGGACCGUCCCCCCGGUAAUGGCGAAUGGGAUCCA", "note": "[U65C C84U]", "self-cleavage": 0.703}
{"variant": "GGCCGGCAUGGUCCCAGCCUCCUCGCUGGCGCCGGCUGGGCAACAUUCCGAGCGGACCGUCCCCUCGGUAAUGGCGAAAGGGACCCA", "note": "[G53C U79A]", "self-cleavage": 0.538}
{"variant": "UGCCGGCAUGGUCCCAGCCUCCACGCUGGCGCCGGCUGGGCAACAUUCCGAGGGGACCGUCCCCUCGGUAAUGGCGAAUGGGACCCA", "note": "[G1U U23A]", "self-cleavage": 0.203}
{"variant": "GGCCGGCAUGGUCCCAGCCUCCUCGCUGGCGCCGGCUGGGCAACAUUCCGAGGGGACCGUCCCCUCGGUAACGGCGAAUGGGAUCCA", "note": "[U72C C84U]", "self-cleavage": 0.284}
{"variant": "GGCCGGCAUGGUCUCAGCCUCCUCGCUGGCGCCGGCUGGGCAACAUUCCGACGGGACCGUCCCCUCGGUAAUGGCGAAUGGGACCCA", "note": "[C14U G52C]", "self-cleavage": 1.1}
{"variant": "GGCCGGCAUGGUCCCAGCCUUGUCGCUGGCGCCGGCUGGGCAACAUUCCGAGGGGACCGUCCCCUCGGUAAUGGCGAAUGGGACCCA", "note": "[C21U C22G]", "self-cleavage": 0.0264}
{"variant": "GGCCGGCAUGGUCCCAGCCUCCUCGCUGGCGCCGGCUGGGCAACAUUCCGACGGGACCGUCCCCUCGGUAAUGGCGAAUGGGGCCCA", "note": "[G52C A83G]", "self-cleavage": 0.683}
{"variant": "GGCCGGCAUGGUCCCAGCCUCCUCGCUGGCGCCGGCAGGGCAACAUUCCGAGGCGACCGUCCCCUCGGUAAUGGCGAAUGGGACCCA", "note": "[U37A G54C]", "self-cleavage": 0.308}
{"variant": "GGCCGGCAUGGUCCCAGCCUCCUCGCUGGCGCAGGCUGGGCAACAUUCCGAGGGGACCGUCCCGUCGGUAAUGGCGAAUGGGACCCA", "note": "[C33A C64G]", "self-cleavage": 0.289}
{"variant": "GGCCGGCAUGGUCCCAGCCUCCUCGCUGGCGCCGGCUGGGCAACUUUCCGAGGGGACCAUCCCCUCGGUAAUGGCGAAUGGGACCCA", "note": "[A45U G59A]", "self-cleavage": 1}
{"variant": "GGCCGGCAUGGUUCCAGCCUCCUCGCUGUCGCCGGCUGGGCAACAUUCCGAGGGGACCGUCCCCUCGGUAAUGGCGAAUGGGACCCA", "note": "[C13U G29U]", "self-cleavage": 0.0707}
{"variant": "GGCCGGCAUGGUCCCAGCCUCCUCGCUGGCGCCGGCUGGGCAACAUUCCGAGGGGACCGUCCCCUCAGUAAUGGCGAAAGGGACCCA", "note": "[G67A U79A]", "self-cleavage": 0.982}
{"variant": "GGCCGGCAUUGUCCCAGCCUCCUCGCUGGCGCCGGCUGGGCAACAUUCCGAGGGGACCGUGCCCUCGGUAAUGGCGAAUGGGACCCA", "note": "[G10U C61G]", "self-cleavage": 0.635}
{"variant": "GGACGGCAUGGUCCCAGCCUCCUCGCUGGCGCCGGCUGGGCAACAUUCCGAGGGGACCGUCCCCUCGGUAAUGGCGAAUGGGACCAA", "note": "[C3A C86A]", "self-cleavage": 0.535}
{"variant": "GGCCGGCAUGGUCCCAGCCUCCUCGCUGGAGCCGGCUGGGCAACAUUCCGAGGGGACCGUCCCCUCGGUAAUGGCAAAUGGGACCCA", "note": "[C30A G76A]", "self-cleavage": 0.585}
{"variant": "GGCCGACAUCGUCCCAGCCUCCUCGCUGGCGCCGGCUGGGCAACAUUCCGAGGGGACCGUCCCCUCGGUAAUGGCGAAUGGGACCCA", "note": "[G6A G10C]", "self-cleavage": 0.249}
{"variant": "GGCCGGCAUGGUCCCAGCCUCCUCGAUGGCGCCGGCUGGGCAACAUUCCCAGGGGACCGUCCCCUCGGUAAUGGCGAAUGGGACCCA", "note": "[C26A G50C]", "self-cleavage": 1.16}
{"variant": "GGCCGGCAUGGUCCCAGCCUCCUCGUUGGCGGCGGCUGGGCAACAUUCCGAGGGGACCGUCCCCUCGGUAAUGGCGAAUGGGACCCA", "note": "[C26U C32G]", "self-cleavage": 0.125}
{"variant": "GGCCGGCAUGGUCCCAGCCUCCUCGUUGGCGACGGCUGGGCAACAUUCCGAGGGGACCGUCCCCUCGGUAAUGGCGAAUGGGACCCA", "note": "[C26U C32A]", "self-cleavage": 0.256}
{"variant": "GGCCGGCAUGGUCCCAGCCUCCUCGCUGGAGCCGGCUGGGCAACAUUCCGAGGGGACCGUCCCCUCGAUAAUGGCGAAUGGGACCCA", "note": "[C30A G68A]", "self-cleavage": 0.411}
{"variant": "GGCCGGCAUGGUCCCAGCCUCCUCGCUGGCGCCGGCUGGGCAAUAUUCCGAGGGGACCGUCCCCUUGGUAAUGGCGAAUGGGACCCA", "note": "[C44U C66U]", "self-cleavage": 0.817}
{"variant": "GGCCGGCAUGGUCCCAGCCUCCUCGCUGGCGACGGCUGGGCAACAUUCCGAGGGGACCGUCCACUCGGUAAUGGCGAAUGGGACCCA", "note": "[C32A C63A]", "self-cleavage": 0.232}
{"variant": "GGCCGGCAUGGUCCCAGCCUCCUCGCUGGCGCCGGCUGGGCAACAUUCCGAGGGGACCGUCCCGUCGGUAACGGCGAAUGGGACCCA", "note": "[C64G U72C]", "self-cleavage": 0.364}
{"variant": "GGCCGGCAUGGUCCCAGCCUCCUCGCUGGCGCCGGCUGGGCAACAUUCCGAGGGGACCGUCCCCUCGGUUAUGGCGAAUGGGACCUA", "note": "[A70U C86U]", "self-cleavage": 1.07}
{"variant": "GGCCGUCAUGGUCCCAGCCUCCUCGCUGGCGCCGGCUGGGCAACAUUCCGAGGGGACCGUCCCCUCGGUAAUGGCGGAUGGGACCCA", "note": "[G6U A77G]", "self-cleavage": 0.302}
{"variant": "GGCCGGCAUCGUCACAGCCUCCUCGCUGGCGCCGGCUGGGCAACAUUCCGAGGGGACCGUCCCCUCGGUAAUGGCGAAUGGGACCCA", "note": "[G10C C14A]", "self-cleavage": 0.237}
